Molecular target: pdcd6_human PDCD6 (UniProt O75340)
Sequence (O75340 whole entry): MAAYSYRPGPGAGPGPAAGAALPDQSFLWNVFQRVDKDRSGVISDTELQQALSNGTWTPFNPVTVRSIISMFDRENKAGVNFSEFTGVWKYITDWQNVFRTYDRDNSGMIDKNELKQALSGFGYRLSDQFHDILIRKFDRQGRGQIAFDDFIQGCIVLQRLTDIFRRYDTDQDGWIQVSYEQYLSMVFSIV

Chain of Phospholipid scramblase 3 (Homo sapiens), Q9NRY6 F49A;F52A (Q9NRY6 whole entry F49A/F52A): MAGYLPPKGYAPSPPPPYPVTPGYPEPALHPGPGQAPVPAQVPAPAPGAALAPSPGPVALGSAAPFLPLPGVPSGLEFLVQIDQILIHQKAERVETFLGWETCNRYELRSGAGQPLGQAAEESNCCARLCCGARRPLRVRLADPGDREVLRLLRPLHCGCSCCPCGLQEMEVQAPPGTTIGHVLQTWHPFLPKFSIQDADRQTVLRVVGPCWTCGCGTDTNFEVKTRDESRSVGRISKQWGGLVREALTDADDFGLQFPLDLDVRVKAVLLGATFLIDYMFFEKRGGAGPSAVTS
Chain of Phospholipid scramblase 3 (Homo sapiens), Q9NRY6 F49Y (Q9NRY6 whole entry F49Y): as the sequence (Q9NRY6 whole entry F49A/F52A) above, with A49Y, A52F counted along it
Chain of Phospholipid scramblase 3 (Homo sapiens), Q9NRY6 P43A;P45A;P47A;P53A (Q9NRY6 whole entry P43A/P45A/P47A/P53A): as the sequence (Q9NRY6 whole entry F49A/F52A) above, with P43A, P45A, P47A, A49F, A52F, P53A counted along it
Chain of Phospholipid scramblase 3 (Homo sapiens), Q9NRY6 F49L (Q9NRY6 whole entry F49L): as the sequence (Q9NRY6 whole entry F49A/F52A) above, with A49L, A52F counted along it
Chain of Phospholipid scramblase 3 (Homo sapiens), Q9NRY6 F49A (Q9NRY6 whole entry F49A): as the sequence (Q9NRY6 whole entry F49A/F52A) above, with A52F counted along it

Row | effect of a mutation on the interaction | Substance
1 | decreasing interaction | Phospholipid scramblase 3 (Homo sapiens), Q9NRY6 F49A
2 | disrupting interaction | Phospholipid scramblase 3 (Homo sapiens), Q9NRY6 F49A;F52A
3 | decreasing interaction | Phospholipid scramblase 3 (Homo sapiens), Q9NRY6 F49Y

The remaining lines, values behind:

Row | Substance | effect of a mutation on the interaction
4 | Phospholipid scramblase 3 (Homo sapiens), Q9NRY6 F49L | decreasing interaction
5 | Phospholipid scramblase 3 (Homo sapiens), Q9NRY6 P43A;P45A;P47A;P53A | decreasing interaction

Source: IntAct's records for PubMed 18256029
